T1: M15-K(biotin)-AAR (SEQ ID NO: 8) peptide
T1 chain: KAAR

B1: first selected modified cleavase (M15-L Z001) (protein)
chain: MHKTRLVAALAAALATLAPAAWADEGMWVPQQLPEIAGALKKAGLKLDPKQLSDLTGDPMGAVVSLGGCTGSFVSPQGLVATNHHCAYGAIQLNSTPEKNLIKDGFNAPTQADELSAGPNARIYVLEGITDVTAQAKAAMAAAGNDPVARANALEAFEKKITSDCEAEPGYRCRVYSFMGGITYRLFKNLEIKDVRLVYAPPSSVGKFGGDIDMGMWPTHTGDFSFYRAYVGKDGKPAPYSKDNVPYRPKHWLKIADTPLGEGDFVMVAGYPGRTDRYALVAEFENTQNWLYPAISKAYKDQIALVEAAAKDNPEIAVKYAAALAGWNRTSKNFDGQLEGFKRNDVLAIKRREEAAVLEWLRARGKAGTPALEAHAALVKLVADTARTQERDLVLGSFNRTGIIGVAVNLYRLAIERQKPDAEREPGYQQRDLPVIEGSLKQMERRYVPAMDRQLRAYWLDRYVALPAAQHVAAVDAWLGGSDKAAAEAALARLDQSRLGSLEERLKWFNADRAAFEASTDPAIQYAVAVMPTLLAMEQQAKTRYGVALEARPRYLQAVVDYKKSKGQAVYPDANSTLRITYGHVKGYTGLNGKVYTPFTTLEEVAAKETGVEPFDNPKALLEAVAAKRYAGLADARLGTVPVNFLADLDITGGNSGSPVLDANGRLVGLAFAGTLESVASNWVFDPVLTRMISVDQRYMRWIMQEVMPAPQLLEELGVPPRQ
B2: engineered dipeptidyl peptidase clone (SEQ ID NO: 11) derived from dipeptidyl peptidase from Thermomonas hydrothermalis (SEQ ID NO: 10) (protein)
chain: DEGMWVPQQLPEIAGALKKAGLKLDPKQLSDLTGDPMGAVVSLGGCTGSFVSPQGLVATNHHCAYGAIQLNSTPEKNLIKDGFNAPTQADELSAGPNARIYVLEGITDVTAQAKAAMAAAGNDPVARANALEAFEKKITSDCEAEPGYRCRVYSFMGGITYRLFKNLEIKDVRLVYAPPSSVGKFGGDIDMGMWPTHTGDFSFYRAYVGKDGKPAPYSKDNVPYRPKHWLKIADTPLGEGDFVMVAGYPGRTDRYALVAEFENTQNWLYPAISKAYKDQIALVEAAAKDNPEIAVKYAAALAGWNRTSKNFDGQLEGFKRNDVLAIKRREEAAVLEWLRARGKAGTPALEAHAALVKLVADTARTQERDLVLGSFNRTGIIGVAVNLYRLAIERQKPDAEREPGYQQRDLPVIEGSLKQMERRYVPAMDRQLRAYWLDRYVALPAAQHVAAVDAWLGGSDKAAAEAALARLDQSRLGSLEERLKWFNADRAAFEASTDPAIQYAVAVMPTLLAMEQQAKTRYGVALEARPRYLQAVVDYKKSKGQAVYPDANSTLRITYGHVKGYTGLNGKVYTPFTTLEEVAAKETGVEPFDNPKALLEAVAAKRYAGLADARLGTVPVNFLADLDITGGNSGSPVLDANGRLVGLAFAVTLESVASNWVFDPVLTRMISVDQRYMRWIMQEVMPAPQLLEELGVPPRQ

Assays:
[1] = molecular target: M15-L-P1 target polypeptide, P1 = A
[2] = molecular target: M15-L-P1 target polypeptide, P1 = L
[3] = molecular target: M15-L-P1 target polypeptide, P1 = Q
[4] = molecular target: M15-L-P1 target polypeptide, P1 = V
[5] = molecular target: M15-L-P1 target polypeptide, P1 = I
[6] = molecular target: M15-L-P1 target polypeptide, P1 = M
[7] = molecular target: T1, M15-K(biotin)-AAR (SEQ ID NO: 8) peptide

Protein	cleavage of single labeled NTAA [1]	cleavage of single labeled NTAA [2]	cleavage of single labeled NTAA [3]	cleavage of single labeled NTAA [4]	cleavage of single labeled NTAA [5]	cleavage of single labeled NTAA [6]	percentage of conversion to cleavage product M15-K(biotin)-A (HPLC, UV absorbance at 254 nm) [7]
B1	provided 100% cleavage	provided 100% cleavage	provided 100% cleavage	provided 100% cleavage	provided 100% cleavage	provided 100% cleavage	–
B2	–	–	–	–	–	–	about 10% of the model peptide was converted to the cleavage product, M15-K(biotin)-A

Reference: patent US20230193248A1
